# Legend:
# [1] = biological target: biotinylated CRH (human and mouse); assay: Octet in-tandem, row = 1st mAb; competitor (2nd mAb) PR006669
# [2] = biological target: biotinylated CRH (human and mouse); assay: competitive ELISA, coated 1st mAb; competitor hIgG1
# [3] = biological target: biotinylated CRH (human and mouse); assay: competitive ELISA, coated 1st mAb; competitor PR006152
# [4] = biological target: biotinylated CRH (human and mouse); assay: competitive ELISA, coated 1st mAb; competitor PR005660
# [5] = biological target: biotinylated CRH (human and mouse); assay: competitive ELISA, coated 1st mAb; competitor PR004290
# [6] = biological target: biotinylated CRH (human and mouse); assay: competitive ELISA, coated 1st mAb; competitor PR302069
# [7] = biological target: biotinylated CRH (human and mouse); assay: competitive ELISA, coated 1st mAb; competitor PR006148
# [8] = biological target: biotinylated CRH (human and mouse); assay: Octet in-tandem, row = 1st mAb; competitor (2nd mAb) PR005660
# [9] = biological target: biotinylated CRH (human and mouse); assay: competitive ELISA, coated 1st mAb; competitor PR302055
# [10] = biological target: biotinylated CRH (human and mouse); assay: Octet in-tandem, row = 1st mAb; competitor (2nd mAb) PR302309-8
# [11] = biological target: biotinylated CRH (human and mouse); assay: competitive ELISA, coated 1st mAb; competitor PR302050
# [12] = biological target: biotinylated CRH (human and mouse); assay: Octet in-tandem, row = 1st mAb; competitor (2nd mAb) PR301777
# [13] = biological target: biotinylated CRH (human and mouse); assay: Octet in-tandem, row = 1st mAb; competitor (2nd mAb) PR303394
# [14] = biological target: biotinylated CRH (human and mouse); assay: competitive ELISA, coated 1st mAb; competitor PR302064
# [15] = biological target: biotinylated CRH (human and mouse); assay: competitive ELISA, coated 1st mAb; competitor PR301777
# [16] = biological target: biotinylated CRH (human and mouse); assay: Octet in-tandem, row = 1st mAb; competitor (2nd mAb) PR302334
# [17] = biological target: biotinylated CRH (human and mouse); assay: Octet in-tandem, row = 1st mAb; competitor (2nd mAb) PR302341-34
# Sequence of biotinylated CRH (human and mouse) (peptide, as listed by the source): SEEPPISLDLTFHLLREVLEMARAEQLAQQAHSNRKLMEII
substance,measurement,setting,value
hIgG1 (antibody),% Inhibition,[1],9%
same,% Inhibition,[2],0%
same,% Inhibition,[3],0%
same,% Inhibition,[4],0%
same,% Inhibition,[5],0%
same,% Inhibition,[6],0%
same,% Inhibition,[7],0%
same,% Inhibition,[8],12%
same,% Inhibition,[9],0%
same,% Inhibition,[10],15%
same,% Inhibition,[11],0%
same,% Inhibition,[12],9%
same,% Inhibition,[13],10%
same,% Inhibition,[14],0%
same,% Inhibition,[15],0%
same,% Inhibition,[16],8%
same,% Inhibition,[17],12%
